Measurements reported in patent US20170088624A1 (Janssen / Centocor, published 2017).

Tests used:
human CD40 (SPR analyte) [1] = molecular target: T1, human CD40 (SPR analyte) (human, UniProt P25942 21-193); test: SPR ProteOn XPR36, mAb captured by anti-human IgG Fc, CD40 as analyte, 25 C; mean of n = 5 (SD 0.97E-03); did not fit well to 1:1 model
T1 construct: also called huCD40-ECD
Experimental: (§1) Affinity measurements were performed using Surface Plasmon Resonance (SPR) using a ProteOn XPR36 system (BioRad). […] Approximately 5000 RU (response units) of mAbs were immobilized. The kinetic experiments were performed at 25° C. in running buffer (DPBS+0.01% P20+100 μg/ml BSA). To perform kinetic experiments, 200 RU of mAbs were captured followed by injections of analytes (human or cyno CD40) at 5 concentrations (in a 4-fold serial dilution). The association phase was monitored for 3 minutes at 50 μL/min, then followed by 15 minutes of buffer flow (dissociation phase). The chip surface was regenerated with two 18 second pulses of 100 mM H₃PO₄ (Sigma, Cat#7961) at 100 μL/min.
(§2) The collected data were processed using ProteOn Manager software. First, the data was corrected for background using inter-spots. Then, double reference subtraction of the data was performed by using the buffer injection for analyte injections. The kinetic analysis of the data was performed using a Langmuir 1:1 binding model. The result for each mAb was reported in the format of Ka (On-rate), Kd (Off-rate) and KD (equilibrium dissociation constant).
(§3) The parameters reported in this table were obtained from a 1:1 Langmuir binding model for all samples. Affinity, KD=kd/ka.

[2] = molecular target: T2, Full length human CD40 (huCD40) on cells (human, UniProt P25942 21-277); test: flow cytometry, human B cells
T2 construct: CD40 on human mature DCs, human B cells, Raji cells and HEK-Blue CD40L cells (stably expressing human CD40); also called TNFRSF5
Target sequence in this assay (P25942 21-277): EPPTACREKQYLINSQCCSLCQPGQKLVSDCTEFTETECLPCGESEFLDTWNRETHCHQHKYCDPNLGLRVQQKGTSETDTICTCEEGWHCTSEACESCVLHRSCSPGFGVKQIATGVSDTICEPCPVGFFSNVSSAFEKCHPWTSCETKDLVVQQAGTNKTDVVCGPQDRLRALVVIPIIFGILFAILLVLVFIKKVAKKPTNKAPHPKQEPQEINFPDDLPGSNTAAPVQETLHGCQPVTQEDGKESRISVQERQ

[3] = molecular target: T2, Full length human CD40 (huCD40) on cells; test: cell-based or functional assay
[4] = molecular target: T2, Full length human CD40 (huCD40) on cells; test: cell-based or functional assay; remark: listed apart in the source
cyno CD40 (SPR analyte) [5] = molecular target: T3, cyno CD40 (SPR analyte) (Macaca fascicularis (cynomolgus), UniProt P25942 21-193 (human entry), limits assumed); test: SPR ProteOn XPR36, mAb captured by anti-human IgG Fc, cyno CD40 as analyte, 25 C; mean of n = 3 (SD 0.24E-09)
T3 construct: also called cCD40-ECD
T3 chain: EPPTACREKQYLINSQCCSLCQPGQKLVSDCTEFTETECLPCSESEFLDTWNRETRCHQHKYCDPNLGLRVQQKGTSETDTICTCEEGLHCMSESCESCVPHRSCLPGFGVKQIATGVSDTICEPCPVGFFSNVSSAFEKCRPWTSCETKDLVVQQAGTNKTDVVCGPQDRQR
Experimental: as §1, §2, §3

[6] = molecular target: T2, Full length human CD40 (huCD40) on cells; test: flow cytometry, HEK-Blue CD40L cells; separate experiment
[7] = molecular target: T2, Full length human CD40 (huCD40) on cells; test: flow cytometry, human DCs
Target sequence in this assay (P25942 21-277): as the sequence (P25942 21-277) above

[8] = molecular target: T2, Full length human CD40 (huCD40) on cells; test: flow cytometry, human B cells; separate experiment
human CD40 (SPR analyte) [9] = molecular target: T1, human CD40 (SPR analyte); test: SPR ProteOn XPR36, mAb captured by anti-human IgG Fc, CD40 as analyte, 25 C; mean of n = 5 (SD 1.51E-09); did not fit well to 1:1 model
Experimental: as §1, §2, §3

[10] = molecular target: T4, Macaca fascicularis (cyno) CD40 (cCD40) on cells (Macaca fascicularis (cynomolgus), UniProt P25942 21-277 (human entry)); test: flow cytometry, cyno mature DCs
T4 construct: CD40 on cyno mature DCs
T4 chain: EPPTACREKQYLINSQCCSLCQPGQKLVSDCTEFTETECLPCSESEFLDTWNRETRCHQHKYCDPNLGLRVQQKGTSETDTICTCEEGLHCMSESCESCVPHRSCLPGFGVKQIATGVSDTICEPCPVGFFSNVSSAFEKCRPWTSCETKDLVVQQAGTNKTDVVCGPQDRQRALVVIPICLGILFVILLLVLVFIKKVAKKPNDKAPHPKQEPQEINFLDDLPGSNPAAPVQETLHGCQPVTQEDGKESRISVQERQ
Experimental: (§4) Human monocytes were isolated from either frozen/fresh PBMC using CD14 negative isolation kit per manufacturer's protocol (MACS Miltenyi). Cyno monocytes were isolated from fresh PBMC using CD14 positive isolation kit per manufacturer's protocol (MACS Miltenyi). To generate DCs, monocytes were cultured for 5 days in complete media RPMI (Invitrogen) in the presence of 100 ng/ml human GM-CSF and human IL-4 (Peprotech) and media was replenished every 2 days. On day 5, DCs were stimulated with 100 ng/ml LPS (Sigma) for 24 hours. Cells were then stained with each of the tested CD40 antibody at different concentration in flow cytometry buffer (PBS+1% FBS; BD Bioscience) in 100 μl volume for 30 minutes on ice followed with two washes with flow buffer. Cells were then stained for additional 30 minutes on ice with APC-conjugated anti human IgG (Jackson ImmunoResearch) at the recommended dilution 1:100 and washed twice with flow buffer. Cells were analyzed for percent positive and Mean Fluorescence Intensity (MFI) to determine the antibody binding using Fortessa (BD Bioscience).
(§5) The experiments were conducted using assays described above. 20 antibodies were characterized further based on their binding to human DCs, cyno DCs, Raji cells and HEK-Blue™ CD40L cells.

[11] = molecular target: T2, Full length human CD40 (huCD40) on cells; test: flow cytometry, human DCs; separate experiment
[12] = molecular target: T2, Full length human CD40 (huCD40) on cells; test: flow cytometry, Raji cells
[13] = molecular target: T2, Full length human CD40 (huCD40) on cells; test: cell-based or functional assay; remark: listed apart in the source
cyno CD40 (SPR analyte) [14] = molecular target: T3, cyno CD40 (SPR analyte); test: SPR ProteOn XPR36, mAb captured by anti-human IgG Fc, cyno CD40 as analyte, 25 C; mean of n = 3 (SD 0.07E-03)
Experimental: as §1, §2

[15] = molecular target: T2, Full length human CD40 (huCD40) on cells; test: flow cytometry, HEK-Blue CD40L cells
Target sequence in this assay (P25942 21-277): as the sequence (P25942 21-277) above

human CD40 (SPR analyte) [16] = molecular target: T1, human CD40 (SPR analyte); test: SPR ProteOn XPR36, mAb captured by anti-human IgG Fc, CD40 as analyte, 25 C; mean of n = 5 (SD 1.83E+05); did not fit well to 1:1 model
Experimental: as §1, §2, §3

cyno CD40 (SPR analyte) [17] = molecular target: T3, cyno CD40 (SPR analyte); test: SPR ProteOn XPR36, mAb captured by anti-human IgG Fc, cyno CD40 as analyte, 25 C; mean of n = 3 (SD 1.02E+05)
Experimental: as §1, §2

[18] = molecular target: T2, Full length human CD40 (huCD40) on cells; test: flow cytometry, human mature DCs
Experimental: as §4, §5

[19] = molecular target: T2, Full length human CD40 (huCD40) on cells; test: flow cytometry, HEK-Blue CD40L cells; remark: listed apart in the source
human CD40 (SPR analyte) [20] = molecular target: T1, human CD40 (SPR analyte); test: SPR ProteOn XPR36, mAb captured, CD40 as analyte, 25 C; lower end of the range of n = 2
Experimental: as §1, §2, §3

human CD40 (SPR analyte) [21] = molecular target: T1, human CD40 (SPR analyte); test: SPR ProteOn XPR36, mAb captured, CD40 as analyte, 25 C; lower end of the range of n = 2; lower end of the range of the n = 2 replicates
Experimental: as §1, §2, §3

cyno CD40 (SPR analyte) [22] = molecular target: T3, cyno CD40 (SPR analyte); test: SPR ProteOn XPR36, mAb captured, cyno CD40 as analyte, 25 C; did not fit well to 1:1 model
Experimental: as §1, §2, §3

human CD40 (SPR analyte) [23] = molecular target: T1, human CD40 (SPR analyte); test: SPR ProteOn XPR36, mAb captured, CD40 as analyte, 25 C; upper end of the range of n = 2; upper end of the range of the n = 2 replicates
Experimental: as §1, §2, §3

human CD40 (SPR analyte) [24] = molecular target: T1, human CD40 (SPR analyte); test: SPR ProteOn XPR36, mAb captured, CD40 as analyte, 25 C; average of n = 2; did not fit well to 1:1 model
Experimental: as §1, §2, §3

human CD40 (SPR analyte) [25] = molecular target: T1, human CD40 (SPR analyte); test: SPR ProteOn XPR36, mAb captured, CD40 as analyte, 25 C; upper end of the range of n = 2
Experimental: as §1, §2, §3

B1: C40M9 (antibody, human IgG1, lambda, V domains shown)
VH: QLQLQESGPGLVKPSEILSLTCTVSGGSISSSSYYWGWIRQPPGKGLEWIGNIYYRGDTYYSPSLKSRVTISVDTSKNQFSLKLNSVTAADTAVYYCAKGFRFDYWGQGTLVTVSS
VL: QSALTQPPSASGSPGQSVTISCTGTSSDVGGYNYVSWYQQHPGKAPKLMIYEVSKRPSGVPDRFSGSKSGNTASLTVSGLQAEDEADYYCSSYAGSNNLVFGGGTKLTVLG
Human CD40 (SPR analyte) [1]
  koff: 0.00285 s⁻¹
[2]
  EC50: 60.9 ng/mL
[3]
  DC EC50, CD80 surface expression, with cross-linker: 27.7 ng/mL
  DC EC50, CD83 surface expression, with cross-linker: 39.8 ng/mL
  DC EC50, CD86 surface expression, with cross-linker: 103 ng/mL
  DC EC50, HLA-DR surface expression, with cross-linker: 79.7 ng/mL
[4]
  B cells EC50, CD23 surface expression, with cross-linker: 2.87 ng/mL
  B cells EC50, CD80 surface expression, with cross-linker: 13.1 ng/mL
  B cells EC50, CD83 surface expression, with cross-linker: 0.00668 ng/mL
  B cells EC50, CD86 surface expression, with cross-linker: 0.0109 ng/mL
  B cells EC50, HLA-DR surface expression, with cross-linker: 0.012 ng/mL
Cyno CD40 (SPR analyte) [5]
  Kd: 1.42 nM
[6]
  EC50: 615 ng/mL
[7]
  EC50: 152 ng/mL
[8]
  EC50: 19.1 ng/mL
Human CD40 (SPR analyte) [9]
  Kd: 4.09 nM
[10]
  EC50: 45.1 ng/mL
[11]
  EC50: 46.2 ng/mL
[12]
  EC50: 57.1 ng/mL
[13]
  EC50, Human B cells (CD83): 0.766 ng/mL
  EC50, Human B cells (CD83), separate experiment: 0.145 ng/mL
  EC50, Human DC (HLA-DR): 118 ng/mL
  EC50, Human DC (HLA-DR), separate experiment: 16.7 ng/mL
  EC50, agonistic activity on HEK-Blue™ CD40L cells (NF-κB/SEAP): 13.8 ng/mL
  EC50, agonistic activity on HEK-Blue™ CD40L cells (NF-κB/SEAP), separate experiment: 6.21 ng/mL
Cyno CD40 (SPR analyte) [14]
  koff: 0.00126 s⁻¹
[15]
  EC50: 143 ng/mL
Human CD40 (SPR analyte) [16]
  kon: 727000 M⁻¹ s⁻¹
Cyno CD40 (SPR analyte) [17]
  kon: 901000 M⁻¹ s⁻¹
[18]
  EC50: 123 ng/mL
[19]
  EC50: 94.2 ng/mL

B2: C40M55 (antibody, human IgG1, kappa, V domains shown)
VH: QVQLVQSGAEVKKPGSSVKVSCKASGGTFSSYAISWVRQAPGQGLEWMGGIIPIFGTANYAQKFQGRVTITADESTSTAYMELSSLRSEDTAVYYCARDGYRRYGIGRYGFDYWGQGTLVTVSS
VL: not shown
notes: Full-length IgG1/kappa; from phage display
Human CD40 (SPR analyte) [20]
  Kd: 2.12 nM
Human CD40 (SPR analyte) [21]
  koff: 0.00188 s⁻¹
  kon: 868000 M⁻¹ s⁻¹
Cyno CD40 (SPR analyte) [22]
  Kd: 2.59 nM
  koff: 0.00215 s⁻¹
  kon: 831000 M⁻¹ s⁻¹
[3]
  DC EC50, CD80 surface expression, with cross-linker: 61.6 ng/mL
  DC EC50, CD83 surface expression, with cross-linker: 103 ng/mL
  DC EC50, CD86 surface expression, with cross-linker: 198 ng/mL
  DC EC50, HLA-DR surface expression, with cross-linker: 81.1 ng/mL
Human CD40 (SPR analyte) [23]
  koff: 0.00217 s⁻¹
  kon: 1.02e+06 M⁻¹ s⁻¹
[4]
  B cells EC50, CD23 surface expression, with cross-linker: 61.6 ng/mL
  B cells EC50, CD80 surface expression, with cross-linker: 1.43 ng/mL
  B cells EC50, CD83 surface expression, with cross-linker: 1.25 ng/mL
  B cells EC50, CD86 surface expression, with cross-linker: 0.646 ng/mL
  B cells EC50, HLA-DR surface expression, with cross-linker: 0.437 ng/mL
Human CD40 (SPR analyte) [24]
  Kd: 2.15 nM
  koff: 0.00203 s⁻¹
  kon: 944000 M⁻¹ s⁻¹
[10]
  EC50: 21.8 ng/mL
Human CD40 (SPR analyte) [25]
  Kd: 2.17 nM
[12]
  EC50: 46.1 ng/mL
[18]
  EC50: 102 ng/mL
[19]
  EC50: 63.1 ng/mL
